Patent publication US20180030149A1 (AVEO PHARMACEUTICALS, published 2018)

B1: 11G01 (antibody, mouse IgG1, kappa, V domains shown)
VH: QVQLQQSDAELVKPGASVKISCKVSGYTFTDHIIHWMKQRPEQGLEWIGYIYPRDGYIKYNEKFKGKATLTADKSSSTAYMQVNSLTSEDSAVYFCARGYYYAMDYWGQGTSVTVSS
VL: DVLMTQTPLSLPVSLGDQASISCRSSQSIVHSIGNTYLEWYLQKPGQSPKLLIYKVSNRFSGVPERFSGSGSGTDFTLKISRVEAEDLGVYYCFQGSHVPFTFGSGTKLEIKR
notes: Murine IgG1/kappa, from hybridoma; also called anti-hErbB3 monoclonal antibody 11G01
B2: 12A07 (antibody, mouse IgG1, kappa, V domains shown)
VH: QVQLLQPGAELVRPGTSVKLSCKTSGYTFSSYWMHWVKQRPGQGLEWIGMIDPSDVYTNYNPKFKGKATLTVDTSSSTAYMQLSSLTSEDSAVYYCARNYSGDYWGQGTTLTVSS
VL: DVLMTQIPLSLPVSLGDQASISCRSSQSIVHSNGNTYLEWYLQKPGQSPKLLIYKVSNRFSGVPDRFSGSGSGTDFTLKISRVEAEDLGVYYCFQGSYVPWTFGGGTKLEIKR
notes: Murine IgG1/kappa, from hybridoma; also called anti-hErbB3 monoclonal antibody 12A07
B3: 22A02 (antibody, mouse IgG1, kappa, V domains shown)
VH: QVQLQQPGAELVRPGTSVKLSCKASGYTFTNYWMHWVKQRPGQGLEWIGMIDPSDSYTNYNPKFKGKATLTVDTSSSTAYMQLSSLTSEDSAVYYCARNYSGDYWGQGTTLTVSS
VL: DVLMTQTPLSLPVSLGDQASISCRSSQSIVHSNGNTYLEWYLQKPGQSPKLLIYKVSNRFSGVPDRFSGSGSGTDFTLKISRVEAEDLGVYYCFQGSYVPWTFGGGTKLEIKR
notes: Murine IgG1/kappa, from hybridoma; also called anti-hErbB3 monoclonal antibody 22A02
B4: Sh24C05-25 (antibody, human IgG1, kappa, V domains shown)
VH: QVQLVESGGGLVKPGGSLRLSCAASGFTFSDYAMSWIRQAPGKGLEWVSTISDGGTYTYYPDNVKGRFTISRDNAKNSLYLQMNSLRAEDTAVYYCAREWGDYDGFDYWGQGTLVTVSS
VL: DIQMTQSPSSLSASVGDRVTITCRASQEISGYLSWFQQKPGKAPKSLIYAASTLDSGVPSRFSGSGSGTDFTLTISSLQPEDFATYYCLQYDSYPYTFGQGTKLEIKR
notes: Humanized, human IgG1/kappa
B5: Sh24C05-31 (antibody, human IgG1, kappa, V domains shown)
VH: QVQLVESGGGLVKPGGSLRLSCAASGFTFSDYAMSWIRQAPGKGLEWVSTISDGGTYTYYPDNVKGRFTISRDNAKNSLYLQMNSLRAEDTAVYYCAREWGDYDGFDYWGQGTLVTVSS
VL: DIQMTQSPSSLSASVGDRVTITCRASQEISGYLSWYQQKPGKAPKRLIYAASTLDSGVPSRFSGSGSGTEFTLTISSLQPEDFATYYCLQYDSYPYTFGQGTKLEIKR
notes: Humanized, human IgG1/kappa
B6: Sh24C05-46 (antibody, human IgG1, kappa, V domains shown)
VH: EVQLLESGGGLVQPGGSLRLSCAASGFTFSDYAMSWVRQAPGKGLEWVSTISDGGTYTYYPDNVKGRFTISRDNSKNTLYLQMNSLRAEDTAVYYCAREWGDYDGFDYWGQGTLVTVSS
VL: DIQMTQSPSSLSASVGDRVTITCRASQEISGYLSWYQQKPGKAPKLLIYAASTLDSGVPSRFSGSGSGTDFTLTISSLQPEDFATYYCLQYDSYPYTFGQGTKLEIKR
notes: Humanized, human IgG1/kappa
B7: Sh24C05-47 (antibody, human IgG1, kappa, V domains shown)
VH: QVQLVESGGGVVQPGRSLRLSCAASGFTFSDYAMSWVRQAPGKGLEWVATISDGGTYTYYPDNVKGRFTISRDNSKNTLYLQMSSLRAEDTAVYYCAREWGDYDGFDYWGQGTLVTVSS
VL: DIQMTQSPSSLSASVGDRVTITCRASQEISGYLSWYQQKPGKAPKLLIYAASTLDSGVPSRFSGSGSGTDFTLTISSLQPEDFATYYCLQYDSYPYTFGQGTKLEIKR
notes: Humanized, human IgG1/kappa
B8: Sh24C05-48 (antibody, human IgG1, kappa)
heavy: not shown
light: DIQMTQSPSSLSASVGDRVTITCRASQEISGYLSWYQQKPGKAPKLLIYAASTLDSGVPSRFSGSGSGTDFTLTISSLQPEDFATYYCLQYDSYPYTFGQGTKLEIKRTVAAPSVFIFPPSDEQLKSGTASVVCLLNNFYPREAKVQWKVDNALQSGNSQESVTEQDSKDSTYSLSSTLTLSKADYEKHKVYACEVTHQGLSSPVTKSFNRGEC
notes: Humanized, human IgG1/kappa
B9: Sh24C05-49 (antibody, human IgG1, kappa, V domains shown)
VH: QVQLVESGGGLVKPGGSLRLSCAASGFTFSDYAMSWIRQAPGKGLEWVSTISDGGTYTYYPDNVKGRFTISRDNAKNSLYLQMNSLRAEDTAVYYCAREWGDYDGFDYWGQGTLVTVSS
VL: DIQMTQSPSSLSASVGDRVTITCRASQEISGYLSWYQQKPGKAPKLLIYAASTLDSGVPSRFSGSGSGTDFTLTISSLQPEDFATYYCLQYDSYPYTFGQGTKLEIKR
notes: Humanized, human IgG1/kappa
B10: Sh24C05-1 (antibody, human IgG1, kappa)
heavy: not shown
light: DIQMTQSPSSLSASLGERVSLTCRASQEISGYLSWLQQKPDGTIKRLIYAASTLDSGVPKRFSGSRSGSDYSLTIGSLESEDLADYYCLQYDSYPYTFGGGTKLEIKRTVAAPSVFIFPPSDEQLKSGTASVVCLLNNFYPREAKVQWKVDNALQSGNSQESVTEQDSKDSTYSLSSTLTLSKADYEKHKVYACEVTHQGLSSPVTKSFNRGEC
notes: Chimeric: mouse 24C05 variable regions, human IgG1/kappa constant regions; also called Chimeric 24C05
B11: Sh24C05-17 (antibody, human IgG1, kappa, V domains shown)
VH: QVQLVESGGGVVQPGRSLRLSCAASGFTFSDYAMSWVRQAPGKGLEWVATISDGGTYTYYPDNVKGRFTISRDNSKNTLYLQMSSLRAEDTAVYYCAREWGDYDGFDYWGQGTLVTVSS
VL: DIQMTQSPSSLSASVGDRVTITCRASQEISGYLSWLQQKPGGAIKRLIYAASTLDSGVPSRFSGSGSGSDYTLTISSLQPEDFATYYCLQYDSYPYTFGQGTKLEIKR
notes: Humanized, human IgG1/kappa

Tests used:
human ErbB3 [1] = molecular target: T1, human ErbB3 (human, UniProt P21860 20-1342); assay: cell-based or functional assay
human ErbB3 [2] = molecular target: T1, human ErbB3; assay: cell-based or functional assay; remark: listed apart in the source
[3] = molecular target: T2, recombinant human ErbB3/Fc fusion protein (human, UniProt P21860 20-643); assay: SPR Biacore T100, 25 C; antibody captured on anti-mouse IgG, rhErbB3-Fc injected
T2 construct: Bought (R&D Systems, Cat. No. 348-RB); the NRG1-α1 assay names Cat. No. 4518-RB instead; also called rhErbB3-Fc; rhErbB3/Fc; not shown: Fc portion of the bought fusion protein
Description: Rabbit anti-mouse IgGs (Biacore, Cat. No. BR-1008-38) were immobilized on carboxymethylated dextran CM4 sensor chips (Biacore, Cat. No. BR-1005-34) by amine coupling (BIAcore, Cat. No. BR-1000-50) using a standard coupling protocol according to vendor's instructions. The analyses were performed at 25° C., using PBS (Invitrogen, Cat. No. 14040-133) containing 0.05% surfactant P20 (Biacore, Cat. No. BR-1000-54) as running buffer.
The antibodies were captured in individual flow cells at a flow rate of 10 μl/minute. Injection time was varied for each antibody to yield an Rₘₐₓ between 30 and 60 RU. […] The dissociation phase was monitored for up to 3600 seconds. The surface was then regenerated with two 60-seconds injection of 10 mM Glycine-HCl, pH 1.7 (made from Glycine pH 1.5 (Biacore, Cat. No. BR-1003-54) and pH 2.0 (Biacore, Cat. No. BR-1003-55)) at a flow rate of […].
(§1) Kinetic parameters were determined using the kinetic function of the BIAevaluation software (Biacore) with double reference subtraction. Kinetic parameters for each antibody, kₐ (association rate constant), kd (dissociation rate constant) and KD (equilibrium dissociation constant) were determined.

[4] = molecular target: T2, recombinant human ErbB3/Fc fusion …; assay: ECL competition; inhibition of NRG1-β1 binding to plate-coated rhErbB3/Fc
Description: (§2) MA2400 96-well standard binding plates (Meso Scale Discovery, Cat. No. L15XA-6) were coated with 50 μl of 0.5 μg/mL rhErbB3/Fc (R&D systems, Cat. No. 348-RB) in PBS (Invitrogen, Cat. No. 14040-133) for overnight at 4° C. with no agitation. The plates then were washed 3 times with PBS+0.1% Tween20 (Sigma P5927) and blocked with 200 μl of PBS containing 5% BSA (Sera Care Life Sciences, Cat. No. AP-4510-80) for 1.5 hour at room temperature. After washing the plates 3 times with PBS, 25 μl of the antibody dilutions were added to the plates for another hour at room temperature with agitation. […] The plates then were washed 3 times with PBS, and 150 μl of 1× read buffer (Meso Scale Discovery, Cat. No. R92TC-1) was added to each well before the plates were analyzed on a Sector® Imager 2400 (Meso Scale Discovery) instrument.

[5] = molecular target: T2, recombinant human ErbB3/Fc fusion …; assay: ECL (MSD) competition: rhErbB3/Fc coated on the plate, antibody dilutions, then NRG1-β1 at 0.25 µg/ml; bound NRG1-β1 detected
Description: as §2

[6] = molecular target: T3, recombinant human ErbB3 monomeric protein (cleaved rhErbB3) (human, UniProt P21860 20-643, limits assumed); assay: SPR Biacore 37 C; purified antibody captured on anti-human Fc, cleaved rhErbB3 0.3125-5.0 nM
T3 construct: Monomer made by protease cleavage of the Fc fusion; also called Monomeric ErbB3
Description: (§3) The analyses were performed at 37° C. using PBS (Invitrogen, Catalog No. 14040-133) containing 0.05% surfactant P20 (Biacore, Catalog No. BR-1000-54) as running buffer.
(§4) The antibodies were captured in individual flow cells at a flow rate of […]. Injection time was varied for each antibody to yield an Rₘₐₓ between 30 and 60 RU. […] The dissociation phase was monitored for up to 1200 seconds. The surface was then regenerated with two 60 second injections of Glycine pH 2.25 (made from Glycine pH 2.0 (Biacore, Catalog No. BR-1003-55) and pH 2.5 (Biacore, Catalog No. BR-1003-56)) at […].
The binding affinities and kinetics of certain purified monoclonal antibodies were also determined. To further characterize certain antibodies, the surface plasmon resonance experiments described above were conducted using concentrations of cleaved rhErbB3 between 0.3125 nM and 5.0 nM (a 2-fold serial dilution).

[7] = molecular target: T3, recombinant human ErbB3 monomeric …; assay: SPR Biacore 37 C; supernatant antibody captured on anti-human Fc, cleaved rhErbB3 injected
Description: as §3, §4, §1

Binder	IC50, NRG1-β1 dependent proliferation of MCF7 cells (MTT) (human ErbB3 [1]) [nM]	inhibition of NRG1-β1 induced phosphorylation of Akt in MCF7 and DU145 cells (ELISA) (human ErbB3 [2]) [%]	inhibition of NRG1-β1 induced phosphorylation of ErbB3 in SKBR-3 cells (ELISA, 5 µg/ml antibody) (human ErbB3 [2]) [%]	Kd [3] [nM]	koff [3] [s⁻¹]	kon [3] [M⁻¹ s⁻¹]	IC50 [4] [nM]	IC50 (read off the curve) [5] [nM]	Kd [6] [nM]	koff [6] [s⁻¹]	kon [6] [M⁻¹ s⁻¹]	Kd [7] [nM]	koff [7] [s⁻¹]	kon [7] [M⁻¹ s⁻¹]
B1	1.98	≥ 80	≥ 50	0.091	2.2e-05	270000	–	–	–	–	–	–	–	–
B2	0.74	≥ 80	≥ 50	0.3	0.00019	620000	0.235	~0.2	–	–	–	–	–	–
B3	1.62	≥ 80	≥ 50	0.32	0.00022	700000	0.242	~0.2	–	–	–	–	–	–
B4	–	–	–	–	–	–	–	–	0.13	0.0005	4e+06	0.175	0.000459	2.63e+06
B5	–	–	–	–	–	–	–	–	0.063	0.00028	4.7e+06	0.0865	0.000292	3.47e+06
B6	–	–	–	–	–	–	–	–	–	–	–	0.551	0.0044	7.99e+06
B7	–	–	–	–	–	–	–	–	–	–	–	0.553	0.00441	7.98e+06
B8	–	–	–	–	–	–	–	–	–	–	–	0.562	0.0049	8.72e+06
B9	–	–	–	–	–	–	–	–	–	–	–	0.416	0.0017	4.08e+06
B10	–	–	–	–	–	–	–	–	0.14	0.00044	3.5e+06	0.178	0.000448	2.52e+06
B11	–	–	–	–	–	–	–	–	–	–	–	0.15	0.000417	2.79e+06
